B1: Nuclear distribution protein nudE homolog 1 (Homo sapiens), Q9NXR1 (parent)
chain: MEDSGKTFSSEEEEANYWKDLAMTYKQRAENTQEELREFQEGSREYEAELETQLQQIETRNRDLLSENNRLRMELETIKEKFEVQHSEGYRQISALEDDLAQTKAIKDQLQKYIRELEQANDDLERAKRATIMSLEDFEQRLNQAIERNAFLESELDEKENLLESVQRLKDEARDLRQELAVQQKQEKPRTPMPSSVEAERTDTAVQATGSVPSTPIAHRGPSSSLNTPGSFRRGLDDSTGGTPLTPAARISALNIVGDLLRKVGALESKLASCRNLVYDQSPNRTGGPASGRSSKNRDGGERRPSSTSVPLGDKGLDTSCRWLSKSTTRSSSSC
B2: Nuclear distribution protein nudE homolog 1 (Homo sapiens), Q9NXR1 (parent)
chain: B1 chain
partner: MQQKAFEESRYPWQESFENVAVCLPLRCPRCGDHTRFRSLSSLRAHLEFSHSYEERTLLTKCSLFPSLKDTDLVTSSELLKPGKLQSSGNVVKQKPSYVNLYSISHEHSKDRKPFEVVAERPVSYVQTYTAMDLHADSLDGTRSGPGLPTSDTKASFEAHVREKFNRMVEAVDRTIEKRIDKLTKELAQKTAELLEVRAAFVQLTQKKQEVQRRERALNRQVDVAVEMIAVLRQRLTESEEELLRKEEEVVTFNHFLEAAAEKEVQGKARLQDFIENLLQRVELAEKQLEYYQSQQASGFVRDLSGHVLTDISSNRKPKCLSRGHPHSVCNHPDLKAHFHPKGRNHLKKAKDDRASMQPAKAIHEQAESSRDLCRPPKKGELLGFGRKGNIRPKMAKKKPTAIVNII

Variants of: B1
Details: with cdk1_human CDK1, P06493
cdk1_human CDK1, P06493, sequence (P06493 whole entry, looked up): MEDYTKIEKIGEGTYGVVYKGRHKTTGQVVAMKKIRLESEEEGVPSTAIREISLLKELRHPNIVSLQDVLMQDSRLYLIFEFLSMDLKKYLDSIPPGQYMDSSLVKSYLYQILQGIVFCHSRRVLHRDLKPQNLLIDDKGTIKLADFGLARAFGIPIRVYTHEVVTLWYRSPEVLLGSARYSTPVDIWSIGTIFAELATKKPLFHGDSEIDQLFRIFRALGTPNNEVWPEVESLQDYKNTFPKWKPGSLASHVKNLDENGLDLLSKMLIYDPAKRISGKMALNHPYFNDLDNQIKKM

effect of a mutation on the interaction	Variant
decreasing interaction	T191V;T215V;T228V;T243V;T246V;S282V

Variants of: B2
Details: with zn365_human ZNF365, Q70YC5

effect of a mutation on the interaction	Variant
decreasing interaction	T191E;T215E;T228E;T243E;T246E;S282E

Variants of: B2
Details: with zn365_human ZNF365, Q70YC5
Remark: another data set of the same source

effect of a mutation on the interaction	Variant
decreasing interaction	T191E;T215E;T228E;T243E;T246E;S282E
